{
  "source": "paper PMC2175248",
  "molecular_target": "myc–E4orf4 (adenovirus 2 (Ad2))",
  "experiment": "co-IP",
  "data": [
    {"substance": "v-src (from UniProt P00524 1-526) (enzyme)", "values": [
      {"measurement": "percent of v-src of the P2 fraction recovered in myc–E4orf4 immune complexes", "result": "< 10", "unit": "%"}
    ]}
  ]
}
